In the test the target is T1, YscUCC, C-terminal polypeptide of the cleaved cytosolic domain YscUC of YscU, wild type (Y. pseudotuberculosis, UniProt P69987 264-354).
T1 sequence: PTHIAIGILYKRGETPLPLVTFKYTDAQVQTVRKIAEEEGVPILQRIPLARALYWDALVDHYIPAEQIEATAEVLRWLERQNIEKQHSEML
As to the kind of experiment: circular dichroism, dissociation kinetics. Conditions: both partners purified. Background: CD spectra are sensitive to the conformation of chiral molecules.

B1: YscUCN, N-terminal cytoplasmic polypeptide of the cleaved cytosolic domain YscUC of YscU (domain or fragment)
chain: IKELKMSKDEIKREYKEMEGSPEIKSKRRQFHQEIQSRNMRENVKRSSVVVAN
Consider B1, for which the binding result is reported as “binds”.

(Values after PMC3504009 (PLoS ONE, 2012).)
